Key:
GPIb on human platelets [1] = biological target: T1, GPIb on human platelets (human, UniProt P07359 17-652); experiment: FACS on human platelets
T1 construct: whole, on cells; also called GPIbα; platelet GPIb

[2] = biological target: T2, platelet GPIb, guinea pig (guinea pig platelets) (guinea pig); experiment: FACS on guinea pig platelets
T2 construct: whole, on cells; also called guinea pig derived platelets

[3] = biological target: T3, CXCR4 point mutant Tyr-21 to alanine (UniProt P61073 1-352); experiment: epitope mapping with tyrosine-to-alanine point mutants of CXCR4
T3 construct: also called CXCR4 Y21A

[4] = biological target: T4, human CCR5 on transfected L1.2 cells (human, UniProt P51681 1-352); experiment: flow cytometry, L1.2 cells transfected with human CCR5
T4 construct: whole, on cells

glycocalicin = biological target: T5, glycocalicin (UniProt P07359 17-506); experiment: SPR (BIAcore 3000), glycocalicin immobilized on CM5 chip
T5 construct: domain: glycocalicin (the outer membrane portion derived from GPIb); also called purified glycocalicin; purified GPIbα

GPIb on human platelets [5] = biological target: T1, GPIb on human platelets; experiment: cell-based or functional assay

T1 sequence (P07359 17-652): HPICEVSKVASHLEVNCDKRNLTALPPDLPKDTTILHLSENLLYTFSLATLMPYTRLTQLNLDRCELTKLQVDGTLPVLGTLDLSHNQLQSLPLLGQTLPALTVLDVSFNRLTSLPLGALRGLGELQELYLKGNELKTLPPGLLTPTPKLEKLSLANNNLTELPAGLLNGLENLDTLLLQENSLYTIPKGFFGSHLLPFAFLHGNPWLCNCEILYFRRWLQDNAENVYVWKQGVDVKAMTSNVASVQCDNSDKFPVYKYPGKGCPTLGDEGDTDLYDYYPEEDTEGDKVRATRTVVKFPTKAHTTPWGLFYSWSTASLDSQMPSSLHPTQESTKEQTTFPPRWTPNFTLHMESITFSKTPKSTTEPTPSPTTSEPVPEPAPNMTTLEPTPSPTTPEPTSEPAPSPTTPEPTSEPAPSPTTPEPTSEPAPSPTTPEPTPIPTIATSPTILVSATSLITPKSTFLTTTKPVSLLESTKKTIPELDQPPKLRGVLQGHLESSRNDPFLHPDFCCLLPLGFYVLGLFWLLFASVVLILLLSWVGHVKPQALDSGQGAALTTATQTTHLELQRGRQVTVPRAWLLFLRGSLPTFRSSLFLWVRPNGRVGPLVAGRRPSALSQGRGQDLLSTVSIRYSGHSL
T5 sequence (P07359 17-506 limits assumed): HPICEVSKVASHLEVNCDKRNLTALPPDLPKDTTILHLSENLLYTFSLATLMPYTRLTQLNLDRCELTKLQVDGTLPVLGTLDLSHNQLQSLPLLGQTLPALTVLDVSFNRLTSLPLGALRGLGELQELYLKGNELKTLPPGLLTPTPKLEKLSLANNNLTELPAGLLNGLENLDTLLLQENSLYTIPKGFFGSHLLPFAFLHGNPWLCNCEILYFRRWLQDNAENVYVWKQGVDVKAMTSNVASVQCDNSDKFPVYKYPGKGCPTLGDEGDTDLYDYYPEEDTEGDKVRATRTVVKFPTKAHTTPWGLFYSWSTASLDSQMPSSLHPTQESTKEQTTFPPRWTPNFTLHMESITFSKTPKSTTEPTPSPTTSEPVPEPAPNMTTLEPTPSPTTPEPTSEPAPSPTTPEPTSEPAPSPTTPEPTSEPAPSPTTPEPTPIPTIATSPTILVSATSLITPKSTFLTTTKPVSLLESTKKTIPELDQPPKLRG
T4 sequence (P51681 whole entry): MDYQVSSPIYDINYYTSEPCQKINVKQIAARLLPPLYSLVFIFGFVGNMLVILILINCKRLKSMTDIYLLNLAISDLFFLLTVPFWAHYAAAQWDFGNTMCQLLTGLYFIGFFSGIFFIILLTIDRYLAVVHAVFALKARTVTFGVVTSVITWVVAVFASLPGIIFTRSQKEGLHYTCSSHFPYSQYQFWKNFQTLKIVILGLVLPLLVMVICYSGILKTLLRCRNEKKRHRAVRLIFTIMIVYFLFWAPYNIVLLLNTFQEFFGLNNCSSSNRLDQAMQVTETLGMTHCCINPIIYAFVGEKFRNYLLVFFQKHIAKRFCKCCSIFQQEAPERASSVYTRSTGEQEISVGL
T3 sequence (P61073 other isoform, or with tags, fused parts or gaps mutant limits assumed): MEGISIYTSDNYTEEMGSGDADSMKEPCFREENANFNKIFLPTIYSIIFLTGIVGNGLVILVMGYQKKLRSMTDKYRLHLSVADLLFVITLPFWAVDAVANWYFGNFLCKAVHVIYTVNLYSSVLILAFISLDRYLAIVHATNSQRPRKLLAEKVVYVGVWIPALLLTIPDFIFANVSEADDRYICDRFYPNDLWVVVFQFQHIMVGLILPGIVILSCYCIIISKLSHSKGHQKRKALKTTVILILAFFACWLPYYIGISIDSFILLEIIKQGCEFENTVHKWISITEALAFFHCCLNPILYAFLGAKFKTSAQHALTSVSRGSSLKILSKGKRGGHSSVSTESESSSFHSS

| Binder | fold binding capacity relative to Y1 (GPIb on human platelets [1]) | fold binding capacity relative to Y1 [2] | binding result [3] | binding result [4] | Kd (glycocalicin) | koff (glycocalicin) | inhibition of ristocetin-induced, vWF-dependent platelet aggregation in washed platelets (IC50) (GPIb on human platelets [5]) |
| --- | --- | --- | --- | --- | --- | --- | --- |
| D1 scFv (scFv) scFv: EVQLVESGGGVVRPGGSLRLSCAASGFTFDLNPKVKHMWVRQAPGKGLEWVSGINWNGGSTGYADSVKGRFTISRDNAKNSLYLQMNSLRAEDTAVYYCARLRSPFGWGQGTLVTVSRGGGGSGGGGSGGGGSSELTQDPAVSVALGQTVRITCQGDSLRSYYASWYQQKPGQAPVLVIYGKNNRPSGIPDRFSGSSSGNTASLTITGAQAEDEADYYCNSRDSSGNHVVFGGGTKLTVLGAAAEQKLISEEDLNGAA | ~25 fold | ~25 fold | – | – | – | – | – |
| S11 scFv (scFv, also called scFv S11) scFv: EVQLVESGGGVVRPGGSLRLSCAASGFTFDLNPKVKHMWVRQAPGKGLEWVSGINWNGGSTGYADSVKGRFTISRDNAKNSLYLQMNSLRAEDTAVYYCARLRYPFFWGQGTLVTVSRGGGGSGGGGSGGGGSSELTQDPAVSVALGQTVRITCQGDSLRSYYASWYQQKPGQAPVLVIYGKNNRPSGIPDRFSGSSSGNTASLTITGAQAEDEADYYCNSRDSSGNHVVFGGGTKLTVLGAAAEQKLISEEDLNGAA | ~25 fold | ~25 fold | no binding | binds | – | – | – |
| S1 scFv (scFv) scFv: EVQLVESGGGVVRPGGSLRLSCAASGFTFDLNPKVKHMWVRQAPGKGLEWVSGINWNGGSTGYADSVKGRFTISRDNAKNSLYLQMNSLRAEDTAVYYCARLRPPFLWGQGTLVTVSRGGGGSGGGGSGGGGSSELTQDPAVSVALGQTVRITCQGDSLRSYYASWYQQKPGQAPVLVIYGKNNRPSGIPDRFSGSSSGNTASLTITGAQAEDEADYYCNSRDSSGNHVVFGGGTKLTVLGAAAEQKLISEEDLNGAA | – | ~25 fold | – | – | – | – | – |
| Y1 scFv (scFv) EVQLVESGGGVVRPGGSLRLSCAASGFTFDDYGMSWVRQAPGKGLEWVSGINWNGGSTGYADSVKGRFTISRDNAKNSLYLQMNSLRAEDTAVYYCARMRAPVIWGQGTLVTVSRGGGGSGGGGSGGGGSSELTQDPAVSVALGQTVRITCQGDSLRSYYASWYQQKPGQAPVLVIYGKNNRPSGIPDRFSGSSSGNTASLTITGAQAEDEADYYCNSRDSSGNHVVFGGGTKLTVLGAAAEQKLISEEDLNGAA | – | – | – | – | 450 nM | 0.12 s⁻¹ | 800 nM |

— US20080274100A1 (published 2008)
